According to paper doi:10.1101/2024.04.08.588565v2:
Positions count from the first letter of the chain named. In names and notes the source's numbering stands.

B1: SrIRED (Streptosporangium roseum DSM 43021; P203A/T241G) (protein)
chain: MRDTDVTVLGLGLMGQALAGAFLKDGHATTVWNRSEGKAGQLAEQGAVLASSARDAAEASPLVVVCVSDHAAVRAVLDPLGDVLAGRVLVNLTSGTSEQARATAEWAAERGITYLDGAIMAIPQVVGTADAFLLYSGPEAAYEAHEPTLRSLGAGTTYLGADHGLSSLYDVALLGIMWGTLNSFLHGAALLGTAKVEATTFAAFANRWIEAVTGFVSAYAGQVDQGAYPALDATIDTHVAGVDHLIHESEAAGVNTELPRLVRTLADRALAGGQGGLGYAAMIEQFRSPSA
B2: SrIRED (Streptosporangium roseum DSM 43021; T241A) (protein)
chain: B1 chain with A203P, G241A
B3: SrIRED (Streptosporangium roseum DSM 43021) (protein)
chain: B1 chain with A203P, G241T
B4: SrIRED (Streptosporangium roseum DSM 43021; E146V) (protein)
chain: B1 chain with E146V, A203P, G241T
B5: SrIRED (Streptosporangium roseum DSM 43021; T241S) (protein)
chain: B1 chain with A203P, G241S

Substrate: O=C1CCCCC1
Experiment: purified protein
Format: biochemical, Streptosporangium roseum
Details: 30 mM cyclopropylamine, 0.5 mM NADPH

Row | Protein | Km (Tris pH 8, 25 °C) [µM] | kcat (Tris pH 8, 25 °C) [s⁻¹] | Km (100 mM Tris pH 8.0, 25 °C) [µM] | kcat (100 mM Tris pH 8.0, 25 °C) [s⁻¹]
1 | B1 | 5100 ± 400 | 49.3 ± 1.5 |  | 
2 | B2 | 2310 ± 330 | 5.77 ± 0.24 |  | 
3 | B3 |  |  | 3520 ± 440 | 2.11 ± 0.08
4 | B4 | 2400 ± 300 | 1.7 ± 0.1 |  | 
5 | B5 | 2310 ± 510 | 6.02 ± 0.39 |  | 
